Data published in patent US20140242080A1 (Hoffmann-La Roche, published 2014).
Substitutions are numbered along the chain they refer to.

T1: cynomolgus MCSP D3 (cynomolgus, UniProt Q6UVK1 1582-2224 (human entry), limits assumed)
T1 construct: also called Cyno MCSP; cynomolgus homologue
T1 chain: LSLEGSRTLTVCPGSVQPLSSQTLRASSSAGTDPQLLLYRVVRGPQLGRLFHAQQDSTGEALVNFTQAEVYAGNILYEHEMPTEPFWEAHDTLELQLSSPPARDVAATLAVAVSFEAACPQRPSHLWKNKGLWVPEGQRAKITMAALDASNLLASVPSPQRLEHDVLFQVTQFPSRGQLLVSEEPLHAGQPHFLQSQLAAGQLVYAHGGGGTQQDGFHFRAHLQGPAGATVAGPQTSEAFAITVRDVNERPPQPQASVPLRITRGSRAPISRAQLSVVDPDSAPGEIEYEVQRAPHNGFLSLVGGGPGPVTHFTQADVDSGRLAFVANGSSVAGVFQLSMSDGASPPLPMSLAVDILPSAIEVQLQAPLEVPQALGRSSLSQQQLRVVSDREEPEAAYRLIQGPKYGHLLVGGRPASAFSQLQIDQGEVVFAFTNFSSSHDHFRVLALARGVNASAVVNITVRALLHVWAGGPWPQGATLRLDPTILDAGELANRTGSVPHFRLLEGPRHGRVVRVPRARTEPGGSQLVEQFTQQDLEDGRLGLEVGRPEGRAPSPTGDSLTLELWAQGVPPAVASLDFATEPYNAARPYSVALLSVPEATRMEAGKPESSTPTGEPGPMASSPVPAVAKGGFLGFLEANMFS

T2: hu-MCSP(D3 domain)-avi-his (human, UniProt Q6UVK1 1582-2224)
T2 construct: Recombinant D3 domain with avi and his tags; also called human MCSP(D3 domain)-avi-his; Human MCSP D3
T2 sequence: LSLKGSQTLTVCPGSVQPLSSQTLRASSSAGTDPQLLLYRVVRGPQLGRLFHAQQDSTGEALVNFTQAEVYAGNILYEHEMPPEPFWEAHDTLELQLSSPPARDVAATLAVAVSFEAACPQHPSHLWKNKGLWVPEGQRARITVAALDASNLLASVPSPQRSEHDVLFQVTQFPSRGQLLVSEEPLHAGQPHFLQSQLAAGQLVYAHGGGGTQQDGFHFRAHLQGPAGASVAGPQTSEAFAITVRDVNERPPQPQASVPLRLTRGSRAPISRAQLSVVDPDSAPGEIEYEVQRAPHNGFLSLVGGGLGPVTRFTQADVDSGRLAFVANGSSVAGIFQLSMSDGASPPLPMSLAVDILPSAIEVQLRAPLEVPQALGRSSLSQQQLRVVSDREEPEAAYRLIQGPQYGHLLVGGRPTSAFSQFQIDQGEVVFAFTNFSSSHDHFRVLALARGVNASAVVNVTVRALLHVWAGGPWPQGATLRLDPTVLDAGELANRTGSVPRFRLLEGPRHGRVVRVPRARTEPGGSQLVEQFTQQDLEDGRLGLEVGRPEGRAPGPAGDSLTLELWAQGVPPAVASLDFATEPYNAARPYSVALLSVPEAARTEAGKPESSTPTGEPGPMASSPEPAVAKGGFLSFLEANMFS

B1: M4-3(C1)/ML2(G3) IgG (antibody, V domains shown)
VH: QVQLQESGPGLVKPSQTLSLTCTVSGGSITSGYYWNWIRQHPGKGLEWIGYITFDGSNNYNPSLKSRVTISRDTSKNQFSLKLSSVTAADTAVYYCADFDYWGQGTLVTVSS
VL: DIQMTQSPSSLSASVGDRVTITCRASQGIRNYLNWYQQKPGKAPKLLIYYTSSLHSGVPSRFSGSGSGTDYTLTISSLQPEDFATYYCQQYSALPWTFGQGTKVEIKR
notes: Human IgG1
B2: M4-3(C1)/ML2(E10) IgG (antibody, V domains shown)
VH: B1 VH
VL: DIQMTQSPSSLSASVGDRVTITCRASYGIRGYLNWYQQKPGKAPKLLIYYTSSLHSGVPSRFSGSGSGTDFTLTISSLQPEDFATYHCQQYSKLPWTFGQGTKVEIK
notes: Human IgG1
B3: M4-3(C1)/ML2(C5) IgG (antibody, V domains shown)
VH: B1 VH
VL: B2 VL with Y27R, G31E, S52G, H87Y, K93E
notes: Human IgG1
B4: 2 + 1 IgG Crossfab, inverted; CL/CH1 exchange (LC007/V9) (anti-MCSP/anti-huCD3) (bispecific antibody)
chain 1: DIVLTQSPSSLSASLGDRVTISCSASQGIRNYLNWYQQRPDGTVKLLIYYTSSLHSGVPSRFSGSGSGTDYSLTISNLEPEDIATYYCQQYSKLPWTFGGGTKLEIKRTVAAPSVFIFPPSDEQLKSGTASVVCLLNNFYPREAKVQWKVDNALQSGNSQESVTEQDSKDSTYSLSSTLTLSKADYEKHKVYACEVTHQGLSSPVTKSFNRGEC
chain 2: EVQLQESGPGLVKPSQSLSLTCSVTGYSITSGYYWNWIRQFPGNKLEWMGYITYDGSNNYNPSLKNRISITRDTSKNQFFLKLNSVTTEDTATYYCADFDYWGQGTTLTVSSASTKGPSVFPLAPSSKSTSGGTAALGCLVKDYFPEPVTVSWNSGALTSGVHTFPAVLQSSGLYSLSSVVTVPSSSLGTQTYICNVNHKPSNTKVDKKVEPKSCDKTHTCPPCPAPEAAGGPSVFLFPPKPKDTLMISRTPEVTCVVVDVSHEDPEVKFNWYVDGVEVHNAKTKPREEQYNSTYRVVSVLTVLHQDWLNGKEYKCKVSNKALGAPIEKTISKAKGQPREPQVCTLPPSRDELTKNQVSLSCAVKGFYPSDIAVEWESNGQPENNYKTTPPVLDSDGSFFLVSKLTVDKSRWQQGNVFSCSVMHEALHNHYTQKSLSLSPGK
chain 3: DIQMTQSPSSLSASVGDRVTITCRASQDIRNYLNWYQQKPGKAPKLLIYYTSRLESGVPSRFSGSGSGTDYTLTISSLQPEDFATYYCQQGNTLPWTFGQGTKVEIKSSASTKGPSVFPLAPSSKSTSGGTAALGCLVKDYFPEPVTVSWNSGALTSGVHTFPAVLQSSGLYSLSSVVTVPSSSLGTQTYICNVNHKPSNTKVDKKVEPKSC
chain 4: not shown
notes: also called 2+1 IgG Crossfab, inverted (V9)
B5: 2 + 1 IgG Crossfab; CL/CH1 exchange (LC007/anti-CD3) (anti-MCSP/anti-huCD3) (bispecific antibody)
chain 1: B4 chain 1
chain 2: B4 chain 2
chain 3: QAVVTQESALTTSPGETVTLTCRSSTGAVTTSNYANWVQEKPDHLFTGLIGGTNKRAPGVPARFSGSLIGDKAALTITGAQTEDEAIYFCALWYSNLWVFGGGTKLTVLSSASTKGPSVFPLAPSSKSTSGGTAALGCLVKDYFPEPVTVSWNSGALTSGVHTFPAVLQSSGLYSLSSVVTVPSSSLGTQTYICNVNHKPSNTKVDKKVEPKSC
chain 4: not shown
notes: also called 2+1 IgG Crossfab (anti-CD3)
B6: Parental M4-3/ML2 IgG (antibody, V domains shown)
VH: B1 VH with F54Y
VL: B2 VL with Y27Q, G31N, H87Y
notes: Human IgG1 format, from mammalian production; also called M4-3 ML2 (parental); anti-MCSP antibody M4-3/ML2

Target: T1, cynomolgus MCSP D3
Test: ratio of ProteOn IgG KD, parent M4-3/ML2 against variant

Row | Binder | Fold increase over parent [fold]
1 | B1 | 10
2 | B2 | 3.3
3 | B3 | 6.7

target: T2, hu-MCSP(D3 domain)-avi-his; test: as above

Row | Binder | Fold increase over parent [fold]
4 | B1 | 28.6
5 | B2 | 4
6 | B3 | 10

target: T3, human MCSP expressed on tumor cells (Colo-38, WM266-4, A375, MV-3, HCT-116) (human, UniProt Q6UVK1 30-2322); test: flow cytometry on WM266-4 cells
T3 construct: whole, on cells; also called huMCSP; MCSP on cells
T3 sequence (Q6UVK1 30-2322): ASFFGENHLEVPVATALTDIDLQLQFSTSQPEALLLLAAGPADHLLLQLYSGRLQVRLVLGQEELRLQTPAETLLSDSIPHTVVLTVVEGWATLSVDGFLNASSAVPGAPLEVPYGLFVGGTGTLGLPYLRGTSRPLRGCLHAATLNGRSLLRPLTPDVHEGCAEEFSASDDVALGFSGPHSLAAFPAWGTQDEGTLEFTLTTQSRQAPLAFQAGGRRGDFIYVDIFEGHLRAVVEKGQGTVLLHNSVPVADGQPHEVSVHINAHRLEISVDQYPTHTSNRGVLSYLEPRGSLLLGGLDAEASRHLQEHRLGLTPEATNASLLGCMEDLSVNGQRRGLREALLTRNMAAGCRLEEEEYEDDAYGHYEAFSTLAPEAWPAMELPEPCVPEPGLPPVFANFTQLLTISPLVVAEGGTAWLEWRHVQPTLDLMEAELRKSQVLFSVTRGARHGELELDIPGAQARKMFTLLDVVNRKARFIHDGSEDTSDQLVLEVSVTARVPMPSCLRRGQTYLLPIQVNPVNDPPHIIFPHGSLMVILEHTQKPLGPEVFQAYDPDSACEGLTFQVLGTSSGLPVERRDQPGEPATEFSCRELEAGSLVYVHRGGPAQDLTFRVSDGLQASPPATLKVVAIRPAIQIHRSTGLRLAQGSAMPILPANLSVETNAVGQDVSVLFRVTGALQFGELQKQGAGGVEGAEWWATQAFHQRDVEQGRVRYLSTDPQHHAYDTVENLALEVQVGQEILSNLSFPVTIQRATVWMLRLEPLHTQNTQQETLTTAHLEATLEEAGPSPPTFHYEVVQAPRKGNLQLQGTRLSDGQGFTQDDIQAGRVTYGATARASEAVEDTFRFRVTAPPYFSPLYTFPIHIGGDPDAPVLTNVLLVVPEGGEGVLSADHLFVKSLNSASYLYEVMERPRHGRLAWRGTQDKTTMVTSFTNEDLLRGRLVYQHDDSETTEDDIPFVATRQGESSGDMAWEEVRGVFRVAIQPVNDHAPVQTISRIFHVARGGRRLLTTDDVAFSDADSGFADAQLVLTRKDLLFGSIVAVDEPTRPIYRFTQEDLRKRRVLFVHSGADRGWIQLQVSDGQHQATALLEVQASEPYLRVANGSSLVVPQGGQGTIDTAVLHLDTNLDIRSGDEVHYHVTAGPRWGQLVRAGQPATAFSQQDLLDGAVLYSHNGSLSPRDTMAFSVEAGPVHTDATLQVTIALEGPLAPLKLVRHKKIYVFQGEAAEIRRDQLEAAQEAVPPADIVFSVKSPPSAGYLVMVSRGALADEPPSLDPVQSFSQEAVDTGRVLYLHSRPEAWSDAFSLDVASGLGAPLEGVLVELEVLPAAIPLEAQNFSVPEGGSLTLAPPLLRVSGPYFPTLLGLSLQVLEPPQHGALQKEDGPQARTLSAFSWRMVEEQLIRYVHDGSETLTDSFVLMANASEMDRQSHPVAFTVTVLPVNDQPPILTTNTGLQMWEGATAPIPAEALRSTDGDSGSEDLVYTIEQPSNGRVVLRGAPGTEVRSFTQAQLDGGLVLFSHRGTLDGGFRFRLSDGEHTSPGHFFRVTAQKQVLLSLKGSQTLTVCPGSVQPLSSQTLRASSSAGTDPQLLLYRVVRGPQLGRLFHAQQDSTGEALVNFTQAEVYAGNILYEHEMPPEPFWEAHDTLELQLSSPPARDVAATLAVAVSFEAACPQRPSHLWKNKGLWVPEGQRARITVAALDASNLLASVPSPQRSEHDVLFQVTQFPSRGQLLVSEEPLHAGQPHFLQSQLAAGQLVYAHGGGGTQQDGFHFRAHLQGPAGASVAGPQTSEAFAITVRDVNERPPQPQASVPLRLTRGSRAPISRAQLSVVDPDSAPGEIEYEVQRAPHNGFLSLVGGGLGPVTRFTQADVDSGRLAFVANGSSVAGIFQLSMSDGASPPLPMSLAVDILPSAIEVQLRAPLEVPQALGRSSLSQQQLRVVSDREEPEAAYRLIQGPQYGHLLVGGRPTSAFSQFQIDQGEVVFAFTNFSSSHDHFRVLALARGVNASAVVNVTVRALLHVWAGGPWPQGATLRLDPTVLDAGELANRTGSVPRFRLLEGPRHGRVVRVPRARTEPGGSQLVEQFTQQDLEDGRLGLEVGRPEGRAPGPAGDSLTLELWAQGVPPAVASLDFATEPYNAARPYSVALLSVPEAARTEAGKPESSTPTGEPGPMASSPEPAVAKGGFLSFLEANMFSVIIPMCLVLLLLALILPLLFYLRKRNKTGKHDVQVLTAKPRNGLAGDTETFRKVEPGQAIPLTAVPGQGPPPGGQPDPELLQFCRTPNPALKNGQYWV
Protocol: (§1) Binding of the different bispecific constructs to CD3 on Jurkat cells (ATCC #TIB-152), and the respective tumor antigen on target cells, was determined by FACS. Briefly, cells were harvested, counted and checked for viability. 0.15-0.2 million cells per well (in PBS containing 0.1% BSA; 90 μl) were plated in a round-bottom 96-well plate and incubated with the indicated concentration of the bispecific constructs and corresponding IgG controls (10 μl) for 30 min at 4° C. […] After the incubation, cells were centrifuged (5 min, 350×g), washed with 150 μl PBS containing 0.1% BSA, resuspended and incubated for further 30 min at 4° C. with 12 μl/well of a FITC- or PE-conjugated secondary antibody. Bound constructs were detected using a FACSCantoII (Software FACS Diva). The “(scFv)₂” molecule was detected using a FITC-conjugated anti-His antibody (Lucerna, #RHIS-45F-Z). For all other molecules, a FITC- or PE-conjugated AffiniPure F(ab′)2 Fragment goat anti-human IgG Fcγ Fragment Specific (Jackson Immuno Research Lab #109-096-098/working solution 1:20, or #109-116-170/working solution 1:80, respectively) was used. Cells were washed by addition of 120 μl/well PBS containing 0.1% BSA and centrifugation at 350×g for 5 min. A second washing step was performed with 150 μl/well PBS containing 0.1% BSA. […] EC50 values were calculated using the GraphPad Prism software.

Row | Binder | EC50 [nM]
7 | B4 | 0.57
8 | B5 | 3.1

target: T4, human CD3 expressed on Jurkat cells (human, UniProt P07766 23-207); test: flow cytometry on Jurkat cells
T4 construct: CD3 complex on Jurkat T cells; also called CD3 on Jurkat cells; huCD3
T4 sequence (P07766 23-207 limits assumed): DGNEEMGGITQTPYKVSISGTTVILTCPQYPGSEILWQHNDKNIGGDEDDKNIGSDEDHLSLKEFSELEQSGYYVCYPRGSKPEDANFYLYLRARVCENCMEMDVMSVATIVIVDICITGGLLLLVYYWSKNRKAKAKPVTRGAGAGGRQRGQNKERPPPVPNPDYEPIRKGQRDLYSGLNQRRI
Protocol: as §1
As a control, the equivalent maximum concentration of the corresponding IgGs and the background staining due to the labeled 2ndary antibody (goat anti-human FITC-conjugated AffiniPure F(ab′)2 Fragment, FcγFragment-specific, Jackson Immuno Research Lab #109-096-098) were assessed as well.

Row | Binder | EC50 [nM]
9 | B4 | 6.1
10 | B5 | 10.3

Target: T1, cynomolgus MCSP D3
Test: SPR Biacore T200, 25 C; avidity: MCSP D3 captured via anti-Penta His, IgG as analyte
Protocol: (§2) For analyzing the avidity of the interaction of different anti-MCSP IgGs to human and cynomolgus MCSP D3 direct coupling of around 9,500 resonance units (RU) of the anti-Penta His antibody (Qiagen) was performed on a CM5 chip at pH 5.0 using the standard amine coupling kit (Biacore, Freiburg/Germany). Antigens were captured for 60 s at 30 nM with 10 μl/min respectively. IgGs were passed at a concentration of 0.0064-100 nM with a flowrate of 30 μl/min through the flow cells over 280 s. The dissociation was monitored for 180 s. Bulk refractive index differences were corrected for by subtracting the response obtained on reference flow cell. […] For affinity measurements IgGs were captured on a CM5 sensorchip surface with immobilized anti human Fc. Capture IgG was coupled to the sensorchip surface by direct immobilization of around 9,500 resonance units (RU) at pH 5.0 using the standard amine coupling kit (Biacore, Freiburg/Germany). IgGs are captured for 25 s at 10 nM with 30 μl/min. Human and cynomolgus MCSP D3 were passed at a concentration of 2-500 nM with a flowrate of 30 μl/min through the flow cells over 120 s. The dissociation was monitored for 60 s. […] Bulk refractive index differences were corrected for by subtracting the response obtained on reference flow cell.

Row | Binder | Kd [nM]
11 | B6 | 0.0123
12 | B1 | 0.0038
13 | B2 | 0.0044
14 | B3 | 0.0044

target: T2, hu-MCSP(D3 domain)-avi-his; test: as above
Protocol: as §2

Row | Binder | Kd [nM]
15 | B6 | 0.009
16 | B1 | 0.0045
17 | B2 | 0.0063
18 | B3 | 0.0046

target: T3, human MCSP expressed on tumor cells …; test: cell-based or functional assay

Row | Binder | EC50 [pM] of T cell-mediated killing (LDH release), MV-3 cells, human PBMCs E:T 10:1, about 24 h [pM] | EC50 [pM] of T cell-mediated killing (LDH release), WM266-4 cells, human PBMCs E:T 10:1, about 24 h [pM]
19 | B4 | 4.1 | 3.7
20 | B5 | 11 | 11.3

Target: T1, cynomolgus MCSP D3
Test: SPR Biacore T200, 25 C; affinity: IgG captured via anti-human Fc, MCSP D3 as analyte
Protocol: as §2

Row | Binder | Kd [nM]
21 | B6 | 11.4
22 | B1 | 1.4
23 | B2 | 3.8
24 | B3 | 1.3

target: T2, hu-MCSP(D3 domain)-avi-his; test: as above
Protocol: as §2

Row | Binder | Kd [nM]
25 | B6 | 8.6
26 | B1 | 1.8
27 | B2 | 4.6
28 | B3 | 1.8

Target: T1, cynomolgus MCSP D3
Test: SPR ProteOn XPR36, 25 C; IgG captured via anti-human F(ab')2, MCSP D3 as analyte

Row | Binder | Kd [nM]
29 | B6 | 2
30 | B1 | 0.2
31 | B2 | 0.6
32 | B3 | 0.3

target: T2, hu-MCSP(D3 domain)-avi-his; test: as above

Row | Binder | Kd [nM]
33 | B6 | 2
34 | B1 | 0.07
35 | B2 | 0.5
36 | B3 | 0.2
